Source: the nanobody polyreactivity screen of Harvey et al. (2022)

Assay: yeast display, Sf9 membrane polyspecificity reagent, FACS + sequencing; frameworks hold sequencing errors
How it was run: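 Polyreactivity labels are assigned by the sorting gate from which each nanobody was recovered. The gates were low and high (top ~1%), set on anti-HA fluorescence for expression and streptavidin fluorescence for reagent binding. Before sorting, galactose-induced (36–48 hours) yeast display cells were stained for 1 hour at 4 °C with 10% biotinylated, detergent-solubilized Sf9 membrane reagent.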

Row | Sequence | polyreactivity (PSR sort gate)
1 | HVQLVESGGGLVQAGGSLRLSCAASGLTFEDNDMGWYRQAPGKERELVAAISSAGSTSYADSVKGRFTISRVNAKNTVYLQMNSLKPEDTAVYYCAKDNSPSYTPAQLDGGDDYWGHGTQVTVSS | low polyreactivity
2 | HVQLVESGGGLVQAGGSLRLSCAASGNTFKYYAMGWYRQAPGKERELVAAISYSGGSTYYADSVKGRFTISRDNAKNTVYLQMNSLKPEDTAVYYCAADLDSERYYWGQGTQVTVSS | low polyreactivity
3 | HVQLVESGGGLVQAGGSLRLSCAASGRIFGPNAMGWYRQAPGKERELVAAISSGTGSRTYYADSVKGRFTISRDNAKKTVSLQMISLKPEDTAVYYCAVYSQQVYRWKYRFDYWGQGTQVTVSS | low polyreactivity
4 | HVQLVESGGGLVQAGGSLRLSCAASGRIFLRYAMGWYRQAPGKERELVAVISSGGSTYYADSVKGRFTISRDNAKNTVYLQMHSLKPEDSAVYYCAARRHDSRYQYDYWGQGTQVSVSS | high polyreactivity
5 | HVQLVESGGGLVQAGGSLRLSCAASGRIFSVYAMGWYRQAPGKEWEFVAAITTNGGSTYYADSVKGRFTISRDNAKNTVYLQMNSLKPEDTAVYYCAAYRSRVNGYRVDYWGQGTQVTVSS | high polyreactivity
6 | HVQLVESGGGLVQAGGSLRLSCAASGRILVHNAMGWYRQAPGKERELVAVITARGASTYYADSVKGRFTISRDNAKNSVYLQMNSLKPEDTAVYYCATDKRPKYYNQYDYWGQGTQVTVSS | low polyreactivity
7 | HVQLVESGGGLVQAGGSLRLSCAASGRSFYKYAMGWYRQAPGKERELVAAISLRGARTYYADSVKGRFTISRDNATNTVYLQMHSLKPEETAVYYCAADNYYVRYAYNKSYSWGQGTQVTGSS | low polyreactivity
8 | HVQLVESGGGLVQAGGSLRLSCAASGRTFSFYVMGWYRQAPGKERELVAAISSSGGRTYYADSVKGRFTISRDNAKNTVYVQMNSLKPEDTAVYYCAVDQPFVSWRLFTQPDSYPRDYWGQGTQVTVSS | low polyreactivity
9 | HVQLVESGGGLVQAGGSLRLSCAASGRTLRRNAMGWYRQAPGKERELVAAINYSGANTYYADSVKGRFTISRDNAKNTVYLQMNSLKPEDTAVYYCAAASTSYRGISGGDYWGQGTQVTVSS | high polyreactivity
10 | HVQLVESGGGLVQAGGSLRLSCAASGSIFGLYAMGWSRQAPGKEWELVAAITRGDSTNYADSVKGRFTISRDNAKNTVYLQMNSLKPEDTAVYYCNAVYAGWRGGNYWGQGTQVTVSS | low polyreactivity
11 | HVQLVESGGGLVQAGGSLRLSCAASGSIFIGNAMGWYRQAPGKERELVAAISKSDGRTYYADSVKGRFTISRDNAKNTVYLQMNSLKPEDTAVYFCAADAYWEPKVGFSLFDYWGQGTQVTVSS | low polyreactivity
12 | HVQLVESGGGLVQAGGSLRLSCAASGSIFRGNAMGWYRQAPGKERELVAAISKSGGSTYYADSVKGRFTISRDNAKNTVFVQMNSLKPEDTAVYYCAARTTYLYGMYYWGQGTQVTVSS | low polyreactivity
13 | HVQLVESGGGLVQAGGSLRLSCAASGSIFWGNAMGWYRQAAGKERELVAAISWGGGRTYYADSVKGRFTISRDTAKNTVYLQMNSLKPEDTAVYYCNTRYPYVVSTGYDYWGQGTQVTVSS | high polyreactivity
14 | HVQLVESGGGLVQAGGSLRLSCAASGSTFSYNAMGWYRQAPGKEWELVAAISWRGTSTYYADSVKGRFTISRDNAKKTVYLQMNSLKPEDTAVYYCAAPYGVSYKGATYDSWGQGTQVTVSS | high polyreactivity
15 | HVQLVESGGGLVQAGGSLRLSCAASGSTFTRNAMGWSRQAPGKEWELVAVISSRGGRTYYADSVKGRFTISRDNAKNTVDLQMNSLKPEATAVYYCAARYVIPLGNTYDYWGPGTQVTVSS | high polyreactivity
16 | HVQLVESGGGLVQAGGSLRLSCAASGSTFTTNVRGWYRQAPGKERELVAAISWNGASTNYADSVKGRFTISRDNAKNTVYLHMNSLNPEDTAVYYCAADVTGLVWDSYYYYFLYEYEYWGQGTQVTVSS | high polyreactivity
17 | HVQLVESGGGLVQAGGSLRLSCADSGRILYYYAMRWYIQEPGKERELVAAINSSGGSPYYADSVKGRFTISRDIAKNTVYLQMNSLKPEDTAVYYGAAEYQVQGYDYWGQGSQVTVSS | high polyreactivity
18 | HVQLVESGGGLVQAGGSLRLSCPASGRIFYRNPMGWYRQAPGKERELVAGISKRGGSTYYADSVKGRFTISRDNAKNTVYLQMNSLKPEDTAVYYCATVPYSPPSAGPEYDYWGQGTQVTVSS | high polyreactivity
19 | HVQLVESGGGLVQAGGSLRLTCAAYGINFTDYAMGWYRQDPGKEMELVAAISSGGGSTYYADSVKGRFTISLDYAKNTVYLQMNSLKPEDTAVYYCAAEGYLISGAGDYMYDYYWGQGTQVTVSS | high polyreactivity
20 | HVQLVESGGGLVQAGGSRRLSCAASGRIFYGYAMGWYRQAPGKERELVAGISYRGARTYYADSVKGRFTISRDNAKNTVYLQMNSLKPEDTAVYYCNAVPYYPFAFGALDYWGQGTQVTVSS | high polyreactivity
21 | HVQLVESGGGLVQAGVSLRLSCAASGSIFSPYAMGGFRPAPGKERELLAAISSSGGSTYYADSVKRRFTISRDNAKNTVYLQMNSLKPEDTAVYYCAADSATGIFDRLNYWGQGTQVTVSS | high polyreactivity
22 | HVQLVESGGGLVQEGGRLRLSCAASGFIFQVNAMGWYRQAPGKERELVAAITGSDGSTSYADSVKGRFTISRDNAKNNVYLQMNSLKPEDTAVYYCAKEESVSTHYYHLIRFDQWGQGTQVTVSS | low polyreactivity
23 | HVQLVESGGGLVQPGGSLRLSCAASGLTFPSYAMGWYRQAPGKERELVAAISSGDSTNYADSVKGRFTISRDNAKNTVYLQMNSLKPEDTAVYYCAVGLPHGGRSLYGSWYRFDYWGQGTQVTVSS | low polyreactivity
24 | HVQLVESGRGLVQAGGSLRLSCAASGSTFPFYDRGWYRQAPGKERQLVDAITASVGNTYYADSVKGRFTISRDNAKNTVYLQMNSLKPEDTAVYYCNADELYTYIPDFDYWGQGSQVTVSS | low polyreactivity
25 | HVQLVESGVGFVQAGGSLRLSCASSGSIFQAYAMGWYRQAPGNERELVAAISDSGGSTYYADSVKGRFTISRDNAKNTVYLQMNSLKPEDTEVYYCAADVYTRFWRVYRVDYWGQGTQVTVSS | low polyreactivity
26 | HVQLVESGVGLVQAGGSLRLRCAASGRTLSVYAMGWYRQAPGKERELVAAITIRGGRTYYADSVKGRFTISRDNAKNTVYLQMNSLKPEDTAVYYCAAPPYVKMDYWGQGTQVTVSS | high polyreactivity
27 | HVQLVETGGGLVQAGGSLRLSCAASGRIFYPYPMGWYRQAPRKERELLARISWGGGATYYADSVKGRFTISRDNAQNTVFLQMNSLKPEDTAVYYCAASYVGYWYRRGYGYWGQGTQVTVSS | high polyreactivity
28 | HYHLVESGGGLVQAGGSLRLSCAASAFTFVQYAMGWYRQAPGKERELVATISKSGGITYYADSVKGRFTISRDNAKNTVYLQMNSLKPEDTAVYYCAAAWYYSSRGFHATWGHDYWGQGTQVTVSS | low polyreactivity
29 | KVQLVEAGGGLVQAGGSLRLSCAASGFILIYYAMGWYRQAPGKERELFAAITWSGGSTYYADSVKGRFTISRDNEKNTVYLKMNTLKQEETAVDYCAAYVGGGDSNADHDYWGQGTQVTVSA | low polyreactivity
30 | KVQLVESGAGLVQAGGSLRLSCAASGITFGWYAMGWYRQAPGKERELVATINSGGSTNYADSVKGRFTISRDNAQNSVYLQMNSLKAEDTAVYYCAADGLIRWYDYWGQGTQVTVSS | low polyreactivity
